This passage reports protein stability index results from the supplement of paper PMC10567573.

± gives the standard deviation.

The nature of the data set: protein stability index of a GFP-peptide fusion (GPS, HEK-293T) (PSI 1-6); higher = more stable.
[1] abbreviates: treatment: DMSO, c terminus: a fixed tail appended.
[2] abbreviates: treatment: MLN4924 1 uM, 8 h, c terminus: a fixed tail appended.
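Also: 24-mer peptide tiles fused after GFP, lentivirally expressed, FACS-sorted into six equal bins by GFP/DsRed ratio, decoded by Illumina sequencing, PSI is the read-weighted mean bin number.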

Take MCYRVRWEEAAPGRAVEHAMFLGD [MYORG]: the protein stability index under setting [1] was determined as 2.27 ± 0.18 and the protein stability index under setting [2] was 2.34 ± 0.47.
For SPSEKNSSFTWSVPSSGYGAVTAS [SMTNL2], the protein stability index by setting is: under setting [1], 3.65 ± 0.18; under setting [2], 3.74 ± 0.073.
In the case of SDYISEFRFAPNHTKELEDKVIEL [EPB41L3], the protein stability index under setting [1] is 2.83 ± 0.5 and the protein stability index under setting [2] is 3.44 ± 0.49.
Taken in the same sequence, the figures for EATSHYIIELLASDAGSPSLHKHL [PCDHGC5] were 2.08 ± 0.064 and 2.12 ± 0.11.
In the case of PRCPGSVNEKLPQREGTGKTVSLQ [SMOC2], the protein stability index stood at 5.03 ± 0.14 under setting [1] and 5.03 ± 0.54 under setting [2].
The corresponding values for PLCMAVLTTASIIQLGVTPPGYSA [SLC6A17] are 3.14 ± 0.94 and 2.94 ± 0.4.
The corresponding values for TRLYLRSHRPNMELCRDAAQFRLL [TEKT4] are 2.16 ± 0.44 and 2.27 ± 0.32.
AVNAHQWLDNPERWNKVKMVVSRE [SEPHS2]: the protein stability index reads like this: under setting [1], 3.02 ± 0.37; under setting [2], 2.67 ± 0.3.
For the sequence QAHGSEGLTFQGLLPLTELSVCPL [PLEKHN1], the protein stability index by setting is: under setting [1], 3.08 ± 0.29; under setting [2], 3.05 ± 0.19.
Regarding NDDSADYQHFLQDCVDGLFKEVKE [DLC1], the protein stability index turned out to be 2.96 ± 0.5 under setting [1] and 3.54 ± 0.62 under setting [2].
For the sequence ETRVTSGSMEALNLKQLRKRGSIP [PPFIA4], the protein stability index stood at 4.6 ± 0.07 under setting [1] and 4.75 ± 0.22 under setting [2].
For YSCACLASGSVLRLVDAVLGAEIR [HDAC6], the protein stability index is, setting by setting: under setting [1], 3 ± 0.68; under setting [2], 2.89 ± 0.66.
The sequence AGSSHTPSSQSSSGGGRDSSSSIL [ELOA2] gave a protein stability index under setting [1] of 4.82 ± 0.26 and a protein stability index under setting [2] of 4.78 ± 0.14.
The corresponding values for SKGMQDFNYLHTNCFEITLELSCD [CPN1] are 2.97 ± 0.48 and 2.72 ± 0.58.
Taken in the same sequence, the figures for GLQDTITAELVVIEDAAEPKEPAP [PALM] were 5.06 ± 0.19 and 5.1 ± 0.18.
The corresponding values for ENAELESRIQEWYEFQIPYICPDY [KRT36] are 2.77 ± 0.46 and 2.9 ± 0.44.
For SDPARYEFLWGPRAHAEIRKMSLL [MAGEA10], the protein stability index under setting [1] stood at 2.46 ± 0.3 and the protein stability index under setting [2] turned out to be 2.49 ± 0.53.
The corresponding values for TNVESQLAEIRCDLERQNQEYQVL [KRT34] are 4.32 ± 0.21 and 4.27 ± 0.17.
Consider AYDEALAELHAHGPAAFVDYFERN [ZSWIM9], for which the protein stability index was found to be 3.73 ± 0.24 under setting [1] and 3.74 ± 0.34 under setting [2].
The corresponding values for LSLTGVSLAGALGVKFVGLFIILQ [POMT2] are 3.05 ± 1.1 and 2.39 ± 1.1.
On to HLHLETFKAVLDGLDVLLAQEVRP [PRAME], for which the protein stability index by setting is: under setting [1], 2.18 ± 0.43; under setting [2], 1.98 ± 0.29.
For the sequence LRLSCMERKKVQIRSMDPSALASD [DCAF4], the protein stability index worked out at 2.99 ± 0.31 under setting [1] and 3.48 ± 0.3 under setting [2].
Turning to PANTQINDIRIFLEKVLEENAQKK [VPS39], the protein stability index runs as follows: under setting [1], 3.73 ± 0.22; under setting [2], 3.61 ± 0.36.
The corresponding values for RDVAAWGRARATGGDLEEQQHAEG [DNAAF3] are 5.43 ± 0.24 and 5.3 ± 0.086.
The corresponding values for FDRKKKSISLMYGGSKRKSSFFSS [SLA] are 2.53 ± 0.22 and 2.68 ± 0.4.
On to TAEDAELSDFEECEETGELFEEPA [FCHSD1], for which the protein stability index worked out at 5.58 ± 0.24 under setting [1] and 5.5 ± 0.28 under setting [2].
Taken in the same sequence, the figures for PNVIDNFLCDLYPLLKLACTNTYV [OR4A15] were 2.87 ± 0.2 and 3.12 ± 0.29.
The corresponding values for SAQYSQQLQAARNEYLLNLVATNA [FCHSD1] are 2.71 ± 0.11 and 2.77 ± 0.18.
Taken in the same sequence, the figures for IGKWFDFKLFFNGRPGIVAWTLIN [DHCR7] were 2.56 ± 0.42 and 2.46 ± 0.18.
In turn, NGLTLLILGVIGLFTIPLLYRQHQ [RTN2] came in with a protein stability index under setting [1] of 3.39 ± 0.37 and a protein stability index under setting [2] of 2.93 ± 0.71.
On to DGDKNNDGRIDFDEFLKMMEGVQ [TNNC2], for which the protein stability index (treatment: DMSO, c terminus: native) worked out at 4.63 ± 0.43 and the protein stability index (treatment: MLN4924 1 uM, 8 h, c terminus: native) worked out at 4.54 ± 0.42.
As for QQENKVLKIELETYKLKCKALQEE [CCDC6], the protein stability index is, setting by setting: under setting [1], 4.28 ± 0.12; under setting [2], 4.27 ± 0.14.
Regarding YSSQLSQVQSLITNVESQLAEIRC [KRT34], the protein stability index runs as follows: under setting [1], 3.07 ± 0.21; under setting [2], 3.24 ± 0.24.
Taken in the same sequence, the figures for QFIANLDQLNDGQDFAKDLLKTLY [PSD2] were 2.21 ± 0.43 and 2.42 ± 0.28.
For VDTLTFQSQSLRDRARRFEEALRK [MTUS2], the protein stability index worked out at 4.08 ± 0.2 under setting [1] and 4.14 ± 0.22 under setting [2].
Regarding TVLVSVTVFDANDNAPVFTLPEYR [PCDHGA10], the protein stability index runs as follows: under setting [1], 2.76 ± 0.43; under setting [2], 2.58 ± 0.36.
The corresponding values for TDRRSFHEVREFKQLIYRVRRTDD [RIT1] are 3.03 ± 0.085 and 3.12 ± 0.14.
As to HVNFSHLTTKDYMEMYNVIMTVKE [SLC6A17], the protein stability index is, setting by setting: under setting [1], 2.41 ± 0.32; under setting [2], 2.44 ± 0.52.
With FRAGMKKEAVQNERDRISTRRSSY [HNF4A], the protein stability index under setting [1] is 4.2 ± 0.21 and the protein stability index under setting [2] was found to be 4.17 ± 0.22.
Taken in the same sequence, the figures for LVWLVRELVKSGVLGADGVCMTFM [INTS3] were 2.17 ± 0.54 and 2.22 ± 0.84.
On to FNNVVEQNFKNRESYPEDTVFYIP [DLC1], for which the protein stability index by setting is: under setting [1], 3.01 ± 0.24; under setting [2], 3.16 ± 0.2.
For the sequence IASIGRHRYIAYMANQEAAIQAFL [IQUB], the protein stability index is 2.39 ± 0.73 under setting [1] and 2.17 ± 0.36 under setting [2].
KGNTALHDCAESGSLDIMKMLLMY [FEM1C]: the protein stability index runs as follows: under setting [1], 1.97 ± 0.22; under setting [2], 1.96 ± 0.34.
Taken in the same sequence, the figures for NHAPLREQGAIPRLVQLLVRAHQD [CTNNB1] were 2.91 ± 0.23 and 2.91 ± 0.19.
In the case of SLRFNGRVLFIKDVIGDEICCWSF [KCTD10], the protein stability index was 2.65 ± 0.49 under setting [1] and 2.42 ± 0.45 under setting [2].
Taken in the same sequence, the figures for GNSISISALQSLLQHLIGLSNLTH [PRAME] were 2.54 ± 0.036 and 2.62 ± 0.41.
Sequence SGVDECARQEGLTFFGTELAPVRQ [PBXIP1] showed a protein stability index under setting [1] of 4.13 ± 0.4 and a protein stability index under setting [2] of 4.08 ± 0.35.
Take LRQLGCKDGKNWNSNQATDIMETS [SPOPL]: the protein stability index runs as follows: under setting [1], 4.25 ± 0.24; under setting [2], 4.28 ± 0.1.
Taken in the same sequence, the figures for QSFGVASASSIKQILLEWCRSKTL [SMTNL2] were 2.41 ± 0.27 and 2.15 ± 0.39.
As for RFELINIDDLEDDPVVNGERSGCA [TCF25], the protein stability index came out at 4.69 ± 0.26 under setting [1] and 4.68 ± 0.26 under setting [2].
Taken in the same sequence, the figures for GLSAGYVDAGAEPGRSRMISQEEF [LPCAT4] were 4.47 ± 0.32 and 4.78 ± 0.23.
On to KINAWDLYYYMTQTEELKYSIDQE [NLN], for which the protein stability index was found to be 2.34 ± 0.3 under setting [1] and 2.19 ± 0.35 under setting [2].
The corresponding values for LVADLLYWKDTRTSGVVFTGLMVS [RTN2] are 3.17 ± 0.46 and 3.03 ± 0.4.
Regarding WEYMHSPSENSKEAEILEVLRHPR [CPOX], the protein stability index under setting [1] was determined as 3.99 ± 0.12 and the protein stability index under setting [2] came to 4.07 ± 0.32.
The corresponding values for EQLSVLASCLQELFKAHFRGEVLP [INTS3] are 2.52 ± 0.42 and 2.5 ± 1.1.
The corresponding values for LSWFILHARYRVIHFIAVAVCLLG [SLC35F2] are 2.49 ± 0.12 and 2.83 ± 0.91.
Taken in the same sequence, the figures for FHHIPSTCQRVNGIKVQNGGIVTD [SLC19A2] were 2.47 ± 0.55 and 3 ± 0.41.
MENLLQATKSHVDKVIMKLGKTNA [DYNC2LI1] came in with a protein stability index under setting [1] of 3.24 ± 0.28 and a protein stability index under setting [2] of 3.34 ± 0.38.
The corresponding values for FPAEQYYRFHEHWRFVLQRLVFLA [TSN] are 2.44 ± 0.42 and 2.22 ± 0.27.
With ERMPPSGAARSFQEVTEPAVVAVD [PXN], the protein stability index by setting is: under setting [1], 4.95 ± 0.17; under setting [2], 5.29 ± 0.31.
Take TLGGLNPSPSEVITPWTPSPSEKN [SMTNL2]: the protein stability index runs as follows: under setting [1], 5.21 ± 0.25; under setting [2], 5.08 ± 0.14.
The corresponding values for QYPNPLPVLSGAELEKAHLALIDY [VPS39] are 3.55 ± 0.24 and 3.58 ± 0.31.
The corresponding values for QICTVKDIKAEPQPLSPASSSYSV [ATF6] are 4.16 ± 0.26 and 3.98 ± 0.47.
As to LKPEKSYSFVLTNRGNSAGGLQHR [PTPRD], the protein stability index reads like this: under setting [1], 3.08 ± 0.53; under setting [2], 3.27 ± 0.23.
Taken in the same sequence, the figures for RRLKYFFMSPCDKFRAKGRKPCKL [MCOLN1] were 2.38 ± 0.38 and 2.71 ± 0.16.
The corresponding values for CIELYFDEKYSIEPSWECKFDHIE [NETO1] are 2.13 ± 0.42 and 2.24 ± 0.25.
The corresponding values for DLEELSLGPRDAGTRGRLESAQAT [ARFIP2] are 5.14 ± 0.083 and 5.06 ± 0.1.
Take PQVFVSNKINAGMYILSPAVLRRI [GMPPB]: the protein stability index was determined as 2.21 ± 0.39 under setting [1] and 2.06 ± 0.26 under setting [2].
In the case of VELPIVDSLHPRPPYLPLAVPEDL [FUT8], the protein stability index is 4.24 ± 0.31 under setting [1] and 4.54 ± 0.22 under setting [2].
The corresponding values for LVELPASFRELLTFFCTNATIHGA [SCNN1D] are 2.79 ± 0.38 and 2.63 ± 0.49.
KKIVHYTCFDQRKRANAAFLIGAY [CDC14A]: the protein stability index was 2.37 ± 0.31 under setting [1] and 2.07 ± 0.83 under setting [2].
The corresponding values for DGMLYILGGEDGEKELISMECYDI [GAN] are 2.05 ± 0.18 and 2.26 ± 0.42.
